The term stoichiometry N denotes the number of molecules, sites or subunits per partner or assembly.

Here are results for 6 molecules from article PMC10066039, “Bile salt hydrolases shape the bile acid landscape and restrict Clostridioides difficile growth in the murine gut” (Nature Microbiology, 2023).

Some targets named below: LaciBSHa; LingBSH; LreuBSH.
Common to all, as to assay: crystal structure; crystals grown at 20 °C by sitting drop vapour diffusion (LgasBSHa with taurine and CDCA: hanging drop); data at 100 K; molecular replacement with PDB 2HEZ; homo-tetramer in the crystal structure
Data set [1] deals with LgasBSHb (Lactobacillus gasseri).
Data set [2] addresses LjohBSHc (johnsonii (cluster johnsonii_1, Lactobacillaceae)).
Data set [3] concerns the molecule itself.

“LaciBSHa (from UniProt A0A805Z5R7 1-316) (enzyme)” gave a stoichiometry N with LaciBSHa of 4. As to “LgasBSHb (from UniProt A0A805Z5R7 1-316) (enzyme)”, in data set [1], the stoichiometry N was found to be 4. “LingBSH (from UniProt A0A805Z5R7 1-316) (enzyme)” had a stoichiometry N with LingBSH of 4.

In data set [2], “LjohBSHc (from UniProt A0A805Z5R7 1-316) (enzyme)” returned a stoichiometry N of 4. In the case of “LreuBSH (from UniProt A0A805Z5R7 1-316) (enzyme)”, the stoichiometry N with LreuBSH came to 4.

B1: LgasBSHa (enzyme, Lactobacillus gasseri, UniProt A0A805Z5R7 1-316, looked up)
chain: MCTGLRFTDDQGNLYFGRNLDVGQDYGEGVIITPRNYPLPYKFLDNTTTKKAVIGMGIVVDGYPSYFDCFNEDGLGIAGLNFPHFAKFSDGPIDGKINLASYEIMLWVTQNFTKVSDVKEALKNVNLVNEAINSSFAVAPLHWIISDKDEAIIVEVSKQYGMKVFDDKLGVLTNSPDFNWHLTNLGNYTGLDPHDATAQSWNGQKVAPWGVGTGSLGLPGDSIPADRFVKAAYLNVNYPTVKGEKANVAKFFNILKSVAMIKGSVVNKLGSDEYTVYTACYSAATKTYYCNFENDFELKTYKLDDETMNADKLITY
notes: bile salt hydrolase LgasBSHa (cluster gasseri_1), amplified from genomic DNA; selectivity loop GVG with V211 in its centre; catalytic cysteine at position 2; Crystallised with taurine and with taurine plus CDCA; also called taurine-preferring BSH; bile salt hydrolase; source: E. coli BL21-G, purified (HisTrap HP, Superdex 200)
As to B1, in data set [3], the “stoichiometry N” value is 4.
